Assay [1] has as its target T1, recombinant human ILT3 ectodomain with C-terminal histidine tag (human, UniProt Q8NHJ6 22-259).
T1 construct: also called recombinant ILT3; hILT3; not shown: C-terminal histidine tag
As to the kind of experiment: BLI (Octet Red), antibody on Protein A biosensors, recombinant ILT3 in solution. In general terms: BLI is a label-free optical method that tracks binding on a fibre tip over time.

For assay [2], the target named is T2, recombinant cynomolgus monkey ILT3 ectodomain with C-terminal histidine tag (cynomolgus monkey).
T2 construct: extracellular domain; Non-native signal peptide; expressed in CHO cells
Described as above.
Procedure: (§1) Affinity: The affinity of antibodies to recombinant ILT3 was determined on an Octet Red™ (Pall, ForteBio) instrument. After loading reagents into a 96-well plate, the Octet Red™ with Protein A-conjugated biosensors was programmed as follows: 30 seconds for baseline #1; 45 seconds to immobilize the antibody; 30 seconds for baseline #2; 300 seconds for association of antibody to recombinant ILT3; and 300 seconds for dissociation of recombinant ILT3 from the antibody. In some cases, the antibody affinity was estimated against cynomolgus ILT3 using a flow based method. Briefly, the assay uses 3-5 fold dilutions from 100 nM to 0.1 nM of a stock antibody concentration (100 nM) diluted in flow buffer. […] Acquisition of the MFI (Median Fluorescent Intensity) was performed on a MACSQuant® Flow Cytometers (Miltenyi Biotec).

For assay [3], the target named is T3, cynomolgus ILT3 expressed on HEK293 cells (Macaca fascicularis (cynomolgus monkey)).
T3 construct: whole, on cells; also called Macaca fascicularis ILT3 homologue; macaque ILT3 homologue
Nature of the assay: flow cytometry, serial antibody dilutions on live HEK293 cells expressing cynomolgus ILT3, Alexa Fluor 647 anti-human IgG secondary, MFI. For orientation: In flow cytometry, cells or beads pass a laser one at a time.
Procedure: as §1

T1 sequence (Q8NHJ6 22-259 D223G): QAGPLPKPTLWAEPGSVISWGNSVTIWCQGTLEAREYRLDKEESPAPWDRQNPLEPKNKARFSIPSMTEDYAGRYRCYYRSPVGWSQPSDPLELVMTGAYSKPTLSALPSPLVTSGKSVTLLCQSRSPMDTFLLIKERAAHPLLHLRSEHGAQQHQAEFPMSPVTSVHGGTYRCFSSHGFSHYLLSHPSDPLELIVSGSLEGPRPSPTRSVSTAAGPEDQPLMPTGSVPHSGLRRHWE

B1: 16B10_27D2 (antibody, V domains shown)
VH: QVQLVESGGGVVQPGRSLRLSCAASGFTFNNYGMHWVRQAPGKGLEWVAIIWNDGSNPYYADSVKGRFTISRDNSKNTLYLQMNSLRAEDTAVYYCVRDSSSWFVNYFDYWGQGTLVTVSS
VL: EIVMTQSPATLSVSPGERATLSCRASQSVNRNLAWYQQKPGQAPRLLIYGASTRATGIPASFSGSGSGTEFTLTISSLQSEDFAVYYCQHYNHWPLTFGGGTKVEIK
notes: Recombinant antibody from CHO cells
B1: in assay [1], the Kd is 1 nM.

B2: 1E12H10_7A1 (antibody, V domains shown)
VH: QVQLVESGGGVVQPGRSLRLSCATSGFTFSSYGMHWVRQAPGKGLEWVALIWFDGGNQYYADSVKGRFTISRDNSKNTLYLQLNSLRAEDTAVYFCARDVISMVRGVPFDYWGQGTLVTVSS
VL: DAVVTQESALTTSPGETVTLTCRSSTGAVTTGNYANWVQEKPDHLFTGLIGGIKNRVPGVPARFSGSLIGDRAALTITGAQTEDEAIYFCALWYSNHWVFGGGTKLTVLG
As for B2, the results for the Kd in assay [1] and in assay [2] were 3 nM and 200 nM, respectively.

B3: 17E8_27C5 (antibody, V domains shown)
VH: QVQLVESGGGVVQPGRSLRLSCAASGFTFSNYGMHWVRQAPGKGLEWMAGIWFDGTNKYYIDSVKGRFTISRDNSKNTLYLQMNNLRAEDTAVYYCARDVISMVRGVPFDYWGQGTLVTVSS
VL: DAVVTQESALTTSPGETVTLTCRSSTGAVTTSNYANWVQEKPDHLFTGLIGGINNRAPGVPARFSGSLIGDKAALTITGAQTEDEAIYFCALWYSNHWVFGGGTKLTVLG
notes: as for B1
Regarding B3, the Kd in assay [1] turned out to be 2 nM.

B4: 11H10_27D4 (antibody, V domains shown)
VH: QVQLVESGGGVVQPGRSLRLSCAASGFTFSNYGIHWVRQAPGKGLEWVAVIWFDGNNKYYADSVKGRFTISRDNSKNTLYLQMNSLRAEDTAVYYCARDVITLVRGVPFDYWGQGTLVTVSS
VL: DAVVTQESALTTSPGETVTVTCRSSTGAVTTSNYANWVQEKPDHLFTGLIGGINNRAPGVPARFSGSLIGDKAALTITGAQTEDEAIYFCALWYSNHWVFGGGTKLTVLG
notes: as for B1
In the case of B4, in assay [1], the Kd came out at 1 nM.

B5: 17F4_27C6 (antibody, V domains shown)
VH: QVQLVESGGGVVQPGRSLRLSCAASGFTFSTYGIHWVRQAPGKGLEWVAVIWFDGSNKYYADSVKGRFTISRDNSKNTLYLQMNSLRAEDTAVYYCARDVISMVRGVPFDYWGQGTLVTVSS
VL: DAVVTQESALTTSPGETVTLTCRSSTGAVTTSNYANWVQEKPDHLFTGLIGGINNRVPGVPARFSGSLIGDKAALTITGAQTEDEAIYFCALWYSNHWVFGGGTKVTVLG
notes: as for B1
For the molecule B5, the Kd in assay [1] was found to be 3 nM.

B6: 20H6_24C3 (antibody, V domains shown)
VH: QVQLQESGPGLLKPSETLSLTCTVSGGSISPYYWSWIRQPPGKGLEWIGYIYYSGNTNYNPSLQSRLTISVDTSKNQFSLKLSSVTAADTAVYYCARRGYSFGFYYGLDVWGQGTTVTVSS
VL: DIQMTQSPSSLSASVGDRVTITCRASQDISIYLAWYQQKPGKVPNLLIYLASTLQSGVPSRFSGSGSGTDFTLTISSLQPEDVATYYCQKYNSAPWTFGQGTKLEIK
notes: as for B1
Consider B6, for which the Kd in assay [1] stood at 1 nM.

B7: 10A5_24A2 (antibody, V domains shown)
VH: QLQLQESGPGLVNPSKTLSLTCNVSGGSMSNYFWSWIRQPPGKGLEWIGYIYNSGNTNYHPSLQSRVTISVDTSKNLFSLKLTSVTAADTAVYYCARRGGYYGSGNYGGLDVWGHGTTVTVSS
VL: DIQMTQSPSSLSASVGDRVTITCRASQGISNYLAWYQQKPGKVPKLLIYAASTLQSGVPSRFSGTGSGTDFTLTISSLQPEDVATYYCQKYDSAPWTFGQGTKVEIK
notes: as for B1
With B7, the Kd in assay [1] was determined as 2 nM.

B8: 7C12_24A6 (antibody, V domains shown)
VH: QVQLQESGPGLVNPSKTLSLTCTVSGGSISSYFWSWIRQPPGKGLEWIGYIYDSGSTNYNPSLKSRVTISVDTSKNHFSLKLSSVTAADTAVYYCARRGGYYGSGSYGGMDVWGQGTTVTVSS
VL: DIQMTQSPSSLSASVGDRVTITCRASQGISNYLAWYQQKPGKVPKLLISAASTLQSGVPSRFSGSGSGTDFTLTISSLQPEDVATYYCQKYNSAPWTFGQGTKLEIK
notes: as for B1
On to B8, for which, in assay [1], the Kd came to 50 nM.

B9: 8C7_24B1 (antibody, V domains shown)
VH: QVQLQESGPGLVKPSETLSLTCTVSGGSISSYYWSWIRQPPGKGLEWIGYIHYSGSTNYNPSLKSRVTISEDTSKNQFSLKLSSVTAADTAVFYCAGRRYYYDSSGYLDYWGQGTLVTVSS
VL: DIQMTQSPSSLSASVGDRVTITCRASQGISNYLAWYQQKPGKVPKLLIYAASTLQSGVPSRFSGSGSGTDFTLTISSLQPEDVATYYCQKYNSAPWTFGQGTKLEIK
notes: as for B1
On to B9, for which the Kd in assay [1] came to 60 nM.

B10: 6H9_27D5 (antibody, V domains shown)
VH: QVELQQSGPGLVKPSETLSLTCTVSGGSISTYFWSWTRQPPGKGLEWIGYTNYRGNTNYNPSLESRVTISVDTSKNQFSLKLSSVTAADTAVYYCARRGGYYGSGNYGGMDVWGQGTTVTVSS
VL: DIQMTQSPSSLSASVGDRVTITCRASQGISNYLAWYQQKPGKVPKLLIYAASTLQSGVPSRFSGSGSGTDFTLTISSLQPEDLATYYCQKYDSAPWTFGQGTKLEIK
notes: as for B1
Take B10: the Kd in assay [1] was 1 nM.

B11: 1C4_24B3 (antibody, V domains shown)
VH: QVQLQEAGPGLVNPSKTLSLTCTVSGGSISSYFWSWIRQPPGKGLEWIGYIYNSGSTNYNPSLQSRVTISVDMSKNHFSLKLSSVTAADTAVYYCARRGGYYGSGNYGGMDVWGQGTTVTVSS
VL: DIQMTQSPSSLSASAGDRVTITCRASQGISNYLAWYQQKPGKVPKLLMYAASALQSGVPSRFSGSGSGTDFTLTISSLQPEDVATYYCQKYDSAPWTFGQGTKVEIK
notes: Recombinant antibody from CHO cells; also called 1C4_24B4
Consider B11, for which the equilibrium dissociation constant (Kd) in assay [1] turned out to be 12 nM.

B12: 14E7_27C1 (antibody, V domains shown)
VH: QVQLQESGPGLVKPSETLSLTCTVSGGSISSYYWSWIRQPPGKGLEWIGYIYYSGSTNYNPSLKSRLTISVDTSKNQFSLKLSSVTAADTAVYYCARRGYSYGYYYGMDVWGQGTTVTVSS
VL: DIQMTQSPSSLSASVGDRVTITCRASQDISNYLAWYQQKPGKVPKLLISPASTLQSGVPSRFSGSGSGTDFTLTISSLQPEDVATYYCQKYNSAPWTFGQGTKLEIK
notes: as for B1
For the molecule B12, the Kd in assay [1] came out at 75 nM.

B13: 4F4_27D3 (antibody, V domains shown)
VH: QVQLQESGPGLVKPSETLSLTCTVSGGSISSHYWSWIRQPPGKGLEWIGYIYYNGGTNYKPSLKSRVTISVDTSKNQFSLKLTSVTAADTAVYYCAGRRYYYDSSGYLDYWGQGTLVTVSS
VL: DIQMTQSPSSLSASVGDRVTITCRASQGISNYLAWYQQKPGKVPKLLIYAASTLQSGVPSRFSGSGSGTDFTLTISSLQPEDVATYYCQKYNSAPWTFGQGTKLEIK
notes: as for B1
For the molecule B13, the Kd in assay [1] turned out to be 30 nM.

B14: 3D8D11 (antibody, V domains shown)
VH: QVQLQESGPGLVKPSETLSLTCTVSGGSISSYFWSWIRQPPGKGLEWIGYIYYSGSTNYNPSLKSRVTISVDTSKNQFSLKLSSVTAADTAVYYCARRGGYSYGYGYYGMDVWGQGTTVTVSS
VL: DIQMTQSPSSLSASVGDRVTITCRASQGISNYLAWYQQKPGKVPKLLIYAASTLQSGVPSRFSGSGSGTDFTLTISSLQPEDVATYYCQKYNSAPWTFGQGTKLEIK
notes: as for B1
B14: the Kd in assay [1] stood at 170 nM.

B15: 5A2_24A1 (antibody, V domains shown)
VH: QVQLQESGPGLVNPSKTLSLTCTVSGGSISRYFWSWIRQPPGKGLEWIGYIYDSGSTNYNPSLKSRVTISVDTSKNHFSLKLSSVTAADTAVYYCARRGGYYGSGSYGGMDVWGQGTTVTVSS
VL: DIQMTQSPSSLSASVGDRVTITCRASQGISNYLAWYQQKPGKIPKLLISAASTLQSGVPSRFSGSGSGTDFTLTISSLQPEDVATYYCQKYDSAPWTFGQGTKVEIK
notes: as for B1
Take B15: the Kd in assay [1] came to 30 nM.

B16: 5E3-24B4 (antibody, V domains shown)
VH: QVQLQESGPGLVKPSETLSLTCTVSGGSISSHYWNWIRQPPGKGLEWIGYIHYSGGTNYNPSQKSRVTISVDTSKNQFSLKLSSVTAADTAVYYCAGRRYYFDSSGYLDYWGQGTLVTVSS
VL: DIQMTQSPSSLSASVGDRVTITCRASQGISNYLAWYQQKPGKIPKLLIYAASTLQSGVPSRFSGSGSGTDFTLTISSLQPEDVATYYCQKYNSAPWTFGQGTKLEIK
notes: as for B1
As to B16, in assay [1], the Kd came out at 2 nM.

B17: 3H3_24B2 (antibody, V domains shown)
VH: QIQLQESGPGLVNPSKTLSLTCTVSGGSIRSYFWSWIRQPPGKGLEWIGYIYDSGNTNYNPSLKSRVTISVDTSKNHFSLKLSSVTAADTAVYYCARRGGYYGSGNYGGMDVWGQGTTVTVSS
VL: DIQMTQSPSSLSASVGDRVTITCRASQGISNYLAWYQQKPGKVPKLLIYAASTLQSGVPSRFSGSGSGTDFTLTISSLQPEDVATYYCQKYNSAPWTFGQGTKLEIK
notes: as for B1
On to B17, for which, in assay [1], the Kd is 40 nM.

B18: 8E11B6 (antibody, V domains shown)
VH: QVQLEESGGGVVQPGRSLRLSCAASGFTFSSYGMHWVRQAPGKGLEWVAVIWYDGSNTYYADSVKGRFTISRDNSKNTLYLQMNSLRAEDTAVYYCARERETFFYVMDAWGQGASVTVSS
VL: DIQMTQSPSTLSASVGDRVTITCRASQSISSWLAWYQQKPGKAPKLLIYKASSLESGVPSRFSGSGSGTEFTLTISSLQPDDFAIYYCQQFNRFITFGQGTRLEIK
For B18, the Kd in assay [1] came out at 10 nM.

B19: 3C4A3_7C5 (antibody, V domains shown)
VH: EVQLLESGGGLVQPGGSLRLSCAASGFTFSSYAMSWVRQAPGKGLEWVSVISGSGGSTYYADSVKGRFTISRDNSKNTLDLQMNSLRAEDTAVYYCAKLGDYYYGMDVWGQGTTVTVSS
VL: not shown
As to B19, the figures for the Kd in assay [1] and in assay [2] were 21 nM and 56 nM, respectively.

B20: 1E2F12H8_3D2 (antibody, V domains shown)
VH: EVQLLESGGGLVQPGGSLRLSCAASGFTFSSYAMSWVRQAPGKGLEWVSIISGSGGDTYYADSVKGRFTISRDNSKNTLYLQMNSLRAEDTAVYYCAKTDDHGDFFDYWGQGTLVTVSS
VL: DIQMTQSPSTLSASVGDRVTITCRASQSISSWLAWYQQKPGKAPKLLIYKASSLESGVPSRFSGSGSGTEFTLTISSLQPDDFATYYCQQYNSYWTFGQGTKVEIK
As for B20, the Kd in assay [1] came out at 6 nM; in assay [2], 27 nM. In assay [3], the “EC50 (read off the curve)” value is around 6 nM.

One may read the Kd as the equilibrium constant for the complex coming apart. As usually defined, the EC50 (read off the curve) is the concentration needed to bring the measured effect to its halfway point.

(Values after patent publication US20220227863A1 (BLUEFIN BIOMEDICINE, published 2022).)
